Test results taken from the nanobody polyreactivity screen of Harvey et al. (2022).

assay: yeast display, Sf9 membrane polyspecificity reagent, FACS + sequencing; frameworks hold sequencing errors
How it was run: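 Synthetic nanobody libraries on Saccharomyces cerevisiae BJ5465 were galactose-induced for 36–48 hours, stained 1 hour at 4 °C with 10% biotinylated, detergent-solubilized Sf9 membrane reagent and enriched on streptavidin microbeads. FACS then separated cells into low and high (top ~1%) gates by anti-HA (expression) and streptavidin (reagent binding) fluorescence. Genes were colony-PCR amplified, MiSeq 2 × 250 sequenced and CDR-length filtered. A clone's polyreactivity label is that of its gate of origin.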

Row | Sequence | polyreactivity (PSR sort gate)
1 | QDQLVESGGGLVQAGGSLRLSCSATGRIFRSYAMGWYRQAPGKERELVASITWRGSSTYYADSVKGRFTISRDNAKNTVYLQMNSRKPEDTAVYYCAKEGYLYLWRYDYWGQGTQVTVSS | high polyreactivity
2 | QDQLVESGGGLVQAGGSLRLSFAASGSTFFTYPMGWYRQDPGKERELVAAITLNGGSTYYADSVKGRFTISRDNAKNTVYLQMISLKPEDTAVYYCAAEVPDTDYNYWGQGTQVTVSS | low polyreactivity
3 | QDQLVESGGGLVQAGGSLRLSGAASGSTFDRYAMGWYRQAPGKEREFVAAITWGGGSTYYADSVKGRFTISRDNAKNTVYLQMNSLKPEDTAVYYCASRYGATFGYWGQGTQVTVSS | low polyreactivity
4 | QDQLVESGGGLVQAGGSLRLTCAASGFIFYHYAMGWYRQAPGKERDLVAAINWSGGSTYYADSVKGRFTISRDNAKKTDYLQMNSLKPEDTAVYYCAAYSTAWYWPGKFDYWGQGTQVTVSS | high polyreactivity
5 | QDQLVESGGGLVQAGGSLRLTCAASGRICTYYAMGWYRKATGKERELVASISRSGGNTYYADSVKGRFTISRDNAKNTVYLQMNSLKPEDTAVYYCAAVYSRLDYWGQGTQVTVSS | high polyreactivity
6 | QDQLVESGGGLVQAGGSLSLSCAASGQTFYQYAMGWYRQAPGKERELVAAISKSAGSTYYADSVKGRFTISRDNAKNTVYLQMNSLKPEDTAVYYCVARVLRLRYDYWGQGTQVSVSS | high polyreactivity
7 | QDQLVESGGGLVQAGGSLSLSCAASGSIFFRNVMGWYRQAPGKERELVAAISGSGGRTYNADSVKGRFTISRDNAKNTVYLQMNSLKPEDTAVYYCYADYWSRRDDHDYWGQGTQVSVSS | high polyreactivity
8 | QDQLVESGGGLVQAGGSQRLSCAASGFTFRRYAMGWYRQEPGKERELVAVITTAGSTNYADSVKGRFTISRDNAKNTVYLPMNSLKPEDTAVYYCATDNGTRKGRYDYWGQGTQVTVSS | low polyreactivity
9 | QDQLVESGGGLVQAGRSLRLSCAASGSIFTVYAMGWYRQAPGKEWELVASISTGGSTNYADSVKGRFTISRDNAKNTVYLPMISLKPEDTAVYYCAATGWAYGYGYGYWGQGTQVTVSS | low polyreactivity
10 | QDQLVESGGGLVQAGVSLRLSCAASGSTFAYITMGRYRQAPGKERELVAAISWRGTRTYYADSVKGRFTISRDNAKNNVYLQMNSLKPEDTAVYYCATKDGISYDYWVQGTQVTVSS | high polyreactivity
11 | QDQLVESGGGLVQARGPLRLSCSASGFNFSNYAMGWYRHAPGKERELVAAISFTGSNTYYADSVKGRFTISRDNAKNTVYLQMNSLKPEDTAVYYWNDPLVWGVYAAQNWDEGYWGQGTQVTVSS | low polyreactivity
12 | QDQLVESGGGLVQARVSLRLSSAASGFIFRWNTMGWYRQAPGKERELVAAISSRGGSTYYAYSVKGRFKISRDNAKNTVYLQMNSLKPEDTAVYYCNAVRGDEYWGQGTQVTVSS | high polyreactivity
13 | QDQLVESGGGLVQEGGSLRLSCAASVSIQAPYAMGWYRQAPGKERELVAAISSRGGSTYYADSVKGRFTISRDNAKNTVYLQMNSLKPEDTAVYYCAAYVYLQVEYDYWGQGTQVTVSW | low polyreactivity
14 | QDQLVESGGGLVQPGGSLRLSCAASGITFYYYTMGWYRQAPGKERELVAGITRGGRTYYADSVKGRFTISRDNAKNTVYLQMNSLKPVDSAVYYCNADPWWRFDYWGQGTQVTVSS | low polyreactivity
15 | QDQLVESGGGLVQTGGSLRLSCASSGLIFTYYALGWYRQAPGTERELVAANRGSYSSTYYADSVKGRFTISRDNAKNTVYLHMNSLKPEDTAVYYCAAKYYWGQGTQVTVSS | high polyreactivity
16 | QDQLVESGGLLVQAGGSLRLSCAAYGSTIGVYAMGWYRQAPRKERELVAAISSSTGSTYYADSVKGRFTISRDNAKNTVYLQMIRQKPEDTAVFYCAAAGYGKVRGDYWGQGTQVSVSS | low polyreactivity
17 | QDQLVESGGRIVQAGGSLRLSCAASGRIFSVYARGWYRQAPGKERELVATISDGGATTYYADSVKGRFTISRDNAKNTVFFQMNSLKPEDTAVYYCAADKRGRPGLPDYDSWGQGTEVTVSS | low polyreactivity
18 | QDQLVESGGRLVQAGGSLRLSCAASGFILSTYAMGWYRQAPGKERELVAAISSSGTSTYYADSVKGRFTISRDNAKNTVYLQMNSLKPEDTAVYYCARVSKRTWSGYYYWGQGTQVTVST | high polyreactivity
19 | QDQLVESGLGIVQAGGSLRLSCAASGYTFSQYSMGWYRQAPGKERELVAAIDSGSKTKYADSVKGRFTISRDNAKNTVYLQMNSLKPEDSAVYYCAADDSYRSIGGDYWGQGTQVTVSS | low polyreactivity
20 | QDQLVESGVGLVQAGGSHRLSCAASGSTFYRYAMRWYRQAHGKERELVATITTGGSSTYYADSVKGRFTISRDNAKNTVYLQMNSLKPEDTAVYYCAKVYTYSGVNLRRISTPYGYWGQGTQVTVSS | high polyreactivity
21 | QDQLVESGVGLVQAGGSLRLSCAASGRILGRNAMGWYRQAPGKERELVAAISSGVSTNYADSVKGRFTISRANAKNTVYLQMNSLKPEDTAVYYWGQGTQVTVSS | low polyreactivity
22 | QDQLVESRGGIVQAGGRLRLSCAASGSRFGGYGMGWYRQAPWKEREFVAVITKRGGSTYYADSVKGRFTISRDNAYNTVYLQMNSLKPEDTAVDYCNKVGYYASVLCYDYWGQGTQVTVSS | high polyreactivity

Row | Sequence | polyreactivity (PSR sort gate)
23 | QDQLVESRGGLVQAGGSLRLICDASGFTFDSNAMVWYRQEPGKERQLVAAISARGTSTYYADSVKGRFTISRDNAKNTVYLQMNSLKPEDTAVYDCNTGESSWYLPEEDYWGQGTQVTLSS | low polyreactivity
24 | QDQLVESRGGLVQAGGSLRLSCAASGFTFPSYAMGWYRQAPRKERELVAAITRSGGRTYYADSVKGRFTISRDNAKNTVYLQMNILKPEDTAVYYGAADRAAPRYDYWGQGTQVTVSS | high polyreactivity
25 | QDQLVESRGGLVQAGGSLRLSCAASGGTFRVYAMGWFIQAPGKERELVAAISSGGSTNYADSVNGRFTISRDNSKNTVYLQMNSLKPEDTAVYYCAADRVGWSVYRGDYWGHGTQVTVSS | high polyreactivity
26 | QDQLVESRGGLVQAGGSLRLTCAASGSTFVIYDMGWYSQATGKERELVAVITIIGGSTYYADSVKGRFTISRDNAKNTVYLQMNSLKPEDTAVYYCNANVIQDYPNYDYWGQGTQVSVSS | low polyreactivity
27 | QDQLVESRGVLVQAGGSLRLSCAASGSTFEANAMGWYRQAPGKERELVAVITWTGGSTYYADSVKGRFTISRDNAKNTVYLQMNSLKPEDTAVYYCAADGVVPGRFFWPAHEYDYWGQGTQVTVSS | low polyreactivity
28 | QDQLVESVGGLDQAGVSLRLSCAASGFIFRAYAMGWYRQAPGKERELVAAITKRSGTTYYADSVKGRFTISRDNAKNTVYLQMNSLKPEDTAVYYCAAKTLYNSGTQDRAMGYWGQGTQVTVSS | high polyreactivity
29 | QDQLVESVGGLVQAGGSLRLSCAASGLTFEVYAMGWSRQAPGKDRELVAAISSGGRSTYYADSVKGRFTISRDNAKNTVYLQMNSRKPEDSAVYYCNAVAKLYYWRYDYWGQGTQVTVSS | low polyreactivity
30 | QDQLVESVGGLVQAGGSLRLSCAASGSTFTSNAMGWYRQAPGKERELVAVITIGGSTNYADSVKGRFTISLDNAKNSVYLQMNSLKPEDTAVYYCAAELFPLQHFWGAYATRRYDYWGQGTQVTVSS | low polyreactivity
31 | QDQLVESVVGLVQAGGSLRLSCAASGRIFEDYAMGWYRQAPGKERELVARICSGDSTNYADSVKGRFTISRDNAKNTVYLQMNSLKPEDTAVYYCAAEGGVQEFDFCGQGTQVTVSS | low polyreactivity
32 | QDQLVESWVGLVQAGGSLRLSYAASGYIIKYNAMGRYRHAPRKERELVAAISSIGGRTYYADSVKARFTISRDNAKNNVYLQINILKPEDTAVYYFNAVGGRYTGWRYDYWGQGTQVTVSS | high polyreactivity
33 | QDQLVETGGGLVQAGGSLRLSCAASGSTFAYYTMGWYRPAPGKERELVAAISSGGITYYAYSVKGRFTISRDNAKNTVYLQMNSLKPEDTAVYYCAAYRTHGPPRAIRFDYWGQGTQVTVSS | high polyreactivity
34 | QDQLVETGGGLVQAGGSLRLSCAASGSTFWGNAMGWYRQAPGKESELVAAISTSDTSTYYADSVKGRFTISRDNAKNTVYLQMNSLKPEDTAVYYCAAEWYYGEKYDYWGQGTQVTVSS | low polyreactivity
35 | QDQLVKSGGGLVQAGGSLRLSCAASGSTFTRNAMGWYRQAHGKERELVAAITLRGGRTYYADSVNGRFTISRDNAKNTVYLHMNSLKPEDTAVYYCAAKPYSAYSYYEQRGRKYDYWGQGTQVTVSS | low polyreactivity
36 | QDQLVVSGGGLVQAGGSHSLSCAASGSIFIGYSMGWYRQAPGQERELVAAITSSGRTNYADSVKGRFTISRDNAKNTVYLQMTILKPEDTAVYYCNAEGYQFFTFDYWGQGTQVTVSS | low polyreactivity
37 | QDQRVESAGGLVQAGGSLRLSCAASGNIFDPNAMGGYRQAPGKERELVAAIRRGGSTNYADSVKGRFTISRDNAKNTVYLQMISLKPEDTAVYDCDKSRVSFTDLEGYYWGQGTLVTVSS | low polyreactivity
38 | QEQHVESGGGLVQAGGSLRLSCAATGLIIYYYAMGWYRQAPGKEMEFVAAISTSGSRTYYADSVKGRFTISRDNAKNTVSLQMNSLKPEDTAVYYCAAEPGRSRYAWGYSYPYDYWGQGTQVTVSS | high polyreactivity
39 | QEQLQESGGGLVQAGGSLRLSCAASGNIYDADIMGWYRQAPGKERELVTSITDGGSTNYADSVKGRFTISRDNAKNTVYLQMNSLKPEDTAVYFCAAIAYPVIPTSFDYNSDYSYWGQGTQVTVSS | low polyreactivity
40 | QEQLQESGGGLVQAGGSLRLSCAASGSISGSSTMGWYRPAPGKERELVASIAVGANTNYADSAKGRFTISRDNAKNTVYLQMNSLKPEDTAVYYCAVDYYIYYFHYWGQGTQVTVSS | high polyreactivity
41 | QEQLQESGGGLVQAGGSLRLSCAASGSISPYIYMGWYRQAPGKERAFVAGIGYGGTTNYADSEKGRYTISRDNAKNTEYLQMNSLKPDDTALYYCNAAYFAGPADDKFDYWGQGTQVTVSS | low polyreactivity
42 | QEQLQESGGGLVQAGGSLRLSSAASGSISGSSTMGWYRQAQGKERELVASIAVGANTNYADSAKGRFTISRDNAKNTVYLQMNSLKPEDTAVYYCAVDYYIYYFHYWGQGTQVTVSS | high polyreactivity
43 | QEQLQESGGGLVQAGGSLRQICAASGSNTPWSYMGRYRQAPGKEREFVASINAGTNTYYADSAKGRITISRDNAKITVYLQMNSLKPEDTAVYYCAARPDGDRLFSYWGQGTQVTVSS | low polyreactivity
